B1: mouse BTLA, soluble protein (analyte of the Octet assay) (receptor, UniProt Q7TSA3 30-183, looked up)
chain: EKATKRNDEECPVQLTITRNSKQSARTGELFKIQCPVKYCVHRPNVTWCKHNGTICVPLEVSPQLYTSWEENQSVPVFVLHFKPIHLSDNGSYSCSTNFNSQVINSHSVTIHVRERTQNSSEHPLITVSDIPDATNASGPSTMEERPGRTWLLY
notes: The construct is not described; also called mBTLA; mBTLA-penta-His-tag
B2: mouse CD160 residues I30-H154 with C-terminal HHHHHHGGGGSGLNDIFEAQKIEWHE, refolded from E. coli inclusion bodies (receptor)
chain: IHVTSSASQKGGRLDLTCTLWHKKDEAEGLILFWCKDNPWNCSPETNLEQLRVKRDPETDGITEKSSQLVFTIEQATPSDSGTYQCCARSQKPEIYIHGHFLSVLVTGNHTEIRQRQRSHPDFSHHHHHHHGGGGSGLNDIFEAQKIEWHE
modifications: biotin (mCD160-biotin in the cell staining assay; site not stated)
notes: range 30-154; also called mCD160; mCD160-biotin

Key:
[1] = molecular target: T1, mouse HVEM (Q39-Q206), wild type, fused to human IgG1 and a hexa-His tag (mouse; human, UniProt Q80WM9 39-206); experiment: Octet bio-layer interferometry, mHVEM-hIgG1 on the sensor, BTLA in solution
T1 construct: From Expi293 cells; also called mHVEM-hIgG1; mHVEMWT; not shown: human IgG1
Text: (§1) The results were exported and then analyzed using Prism 5 (GraphPad Software). Final response curves were generated after subtracting the responses of the control groups.

[2] = molecular target: T1, mouse HVEM (Q39-Q206), wild type, fused …; experiment: Octet bio-layer interferometry, mHVEM-hIgG1 on the sensor, mBTLA in solution
Text: (§2) Error bars represent results from at least triplicates. […] Ligands BTLA, CD160 and LIGHT are modeled based on the HVEM structures and are shown as labeled surfaces.
as §1

[3] = molecular target: T1, mouse HVEM (Q39-Q206), wild type, fused …; experiment: Octet bio-layer interferometry, mHVEM-hIgG1 on the sensor, mCD160 in solution
Text: as §2, §1

[4] = molecular target: T1, mouse HVEM (Q39-Q206), wild type, fused …; experiment: Octet bio-layer interferometry, mHVEM-hIgG1 on the sensor, CD160 in solution
Text: as §1

[5] = molecular target: B2; experiment: Octet bio-layer interferometry, mHVEM-hIgG1 on the sensor, mCD160 in solution
Text: as §2, §1

[6] = molecular target: B1; experiment: Octet bio-layer interferometry, mHVEM-hIgG1 on the sensor, mBTLA in solution
Text: as §2, §1

[7] = molecular target: T2, single chain homotrimeric mouse LIGHT extracellular domain (G73-V239), N-terminal HHHHHHGG, joined by two … (mouse, UniProt Q9QYH9 73-239); experiment: Octet bio-layer interferometry, mHVEM-hIgG1 on the sensor, LIGHT in solution
T2 construct: Soluble analyte of the Octet assay; from Expi293 cells; also called mLIGHT
T2 sequence: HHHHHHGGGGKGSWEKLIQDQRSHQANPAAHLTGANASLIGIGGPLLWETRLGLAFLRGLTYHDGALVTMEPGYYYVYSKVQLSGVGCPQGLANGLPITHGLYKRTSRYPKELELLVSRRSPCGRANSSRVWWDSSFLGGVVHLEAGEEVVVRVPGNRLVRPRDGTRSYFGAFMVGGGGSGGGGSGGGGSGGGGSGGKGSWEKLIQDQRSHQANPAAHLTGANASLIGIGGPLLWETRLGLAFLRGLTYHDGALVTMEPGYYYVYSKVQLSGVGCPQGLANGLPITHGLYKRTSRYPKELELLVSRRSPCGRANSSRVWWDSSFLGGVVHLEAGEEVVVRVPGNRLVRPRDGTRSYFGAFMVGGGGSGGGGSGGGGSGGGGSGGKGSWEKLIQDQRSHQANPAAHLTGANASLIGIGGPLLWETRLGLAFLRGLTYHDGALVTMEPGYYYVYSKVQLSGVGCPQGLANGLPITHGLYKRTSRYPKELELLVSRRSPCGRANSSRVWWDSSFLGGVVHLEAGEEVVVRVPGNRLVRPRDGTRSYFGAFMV
Text: as §1

[8] = molecular target: T2, single chain homotrimeric mouse LIGHT …; experiment: Octet bio-layer interferometry, mHVEM-hIgG1 on the sensor, mLIGHT in solution
Text: as §2, §1

[9] = molecular target: B1; experiment: Octet bio-layer interferometry, mHVEM-hIgG1 on the sensor, BTLA in solution
Text: as §1

[10] = molecular target: B1; experiment: Octet BLI, mHVEM-hIgG1 immobilised (text says surface plasmon resonance)
Text: as §1

[11] = molecular target: T2, single chain homotrimeric mouse LIGHT …; experiment: as above
Text: as §1

[12] = molecular target: B2; experiment: as above
Text: as §1

[13] = molecular target: B2; experiment: Octet bio-layer interferometry, mHVEM-hIgG1 on the sensor, CD160 in solution
Text: as §1

Work on B1 yielded a Kd [1] of 1.1 µM and a Kd [2] of 1.1 µM.

B2 gave a Kd [3] of 11.6 µM and a Kd [4] of 11.6 µM.

B3: mouse HVEM (Q39-Q206) G72R-V74A fused to human IgG1 and a hexa-His tag, soluble form (Fc fusion)
chain (part 1 of 2): QPSCRQEEFLVGDECCPMCNPGYHVKQVCSEHTRTACAPCPPQTYTAHANGLSKCLPCGVCDPDMGLLTWQECSSWKDTVCRCIPGYFCENQDGSHCSTCLQHTTCPPGQRVEKRGTHDQDTVCADCLTGTFSLGGTQEECLPWTNCSAFQQEVRRGTNSTDTTCSSQ
chain (part 2 of 2): HHHHHH
notes: also called mHVEM^-BT/160; mHVEM-BT/160; not shown: human IgG1
For B3, the binding result [5] was “no binding”, the binding result [6] was “no binding” and the Kd [7] was 0.0293 µM. For the same binder, the Kd [8] was 0.0293 µM.

B4: mouse HVEM (Q39-Q206) H86D-L90A fused to human IgG1 and a hexa-His tag, soluble form (Fc fusion)
chain (part 1 of 2): QPSCRQEEFLVGDECCPMCNPGYHVKQVCSEHTGTVCAPCPPQTYTADANGASKCLPCGVCDPDMGLLTWQECSSWKDTVCRCIPGYFCENQDGSHCSTCLQHTTCPPGQRVEKRGTHDQDTVCADCLTGTFSLGGTQEECLPWTNCSAFQQEVRRGTNSTDTTCSSQ
chain (part 2 of 2): HHHHHH
notes: also called mHVEM^-LIGHT; mHVEM-LIGHT; not shown: human IgG1
B4 showed a Kd [9] of 5.3 µM, a Kd [5] of 33.5 µM and a Kd [6] of 5.3 µM. The Kd [7] was 31.7 µM, the Kd [8] was 31.7 µM and the “fold reduction of binding against wild-type mHVEM” value [10] was ~5 fold. The “log-fold decrease in binding against wild-type mHVEM” value [11] was > 3 log-fold, the “fold reduction of binding against wild-type mHVEM” value [12] was ~3 fold and the Kd [13] was 33.5 µM.

Reference: patent publication US20250326817A1 (LA JOLLA INSTITUTE FOR IMMUNOLOGY, published 2025)
